Experimental data: paper PMC3817407

B1: AS01_3473 (protein)
chain: MSNYDNAELLALWLEGKLTPKQRDEFEQRCIQDSQFAEQVDAAAMVKIGADDYSSSEVPQWNKAATFEPQQANNSGSWLSGVSLVTSALAIVLVLTGTQVTTSEGELRIRFGSGQSEQALVKLVDSKLDAFKQNQQDAFTLYAQTLQQQQSESASQLTNYLLSSSRKERREDFAELIKFVNQQRSDDQLFYARQLNQLQQDVYHDATGVALESIQQ
B2: AS03_1198 (protein)
chain: MDKDFDFDNIGKRTPYRTPDNFFEETQRKILERTVDEQRKKRRLKRIIPTVIAVAAVLAGILFTPSLRYMNTDTPSASNILAVDKNNVTTDPVDKWIKELSDEELEELVSFSENDIFLN
B3: AS03_1244 (protein)
chain: MKQFDPDVNIRPKEDSIRHYSVPDDYFASFTDKLMAQIPAVKEENTVVVPSVALWPKLRPLLYLAASFLLMIGMFKAFSLFGVGSDTGRTTSTSAGLVALDHGDTRWSEDTDYRDFLHDNCAETVSDEWVLTDFSE
B4: AS04_1609 (protein)
chain: MNRTTEQRNAEVMKTIGLLDQMPRVEVDHLFRVRLMQRIEAMEVKKTSWSALPGGAFNPRLAFMALLLMLNIASALMLFMHGTPQATGSSGAIAESLTEDYGGPALSYYDDQTTIDR
B5: AS11_987 (protein)
chain: MNKHPDNNLLEAYASGSIDAVSGLVVATHLETCSKCRAYVNQVEASQANTVSESPSEYSPEFDDMLNDIINAEPVNDNVVIQDTAFVNVAGKSFELPKTLVRFSDLVGSWRSYGGKVFSAQIDLGEDARVSLMYIGENVQIPQHTHRGLESTLVLHGGFSDEDGQYEEGDLMVRDASVKHSPFTQEGEDCLCLTVLTEPMIFTQGVARIFNLFGKGLYP
B6: AS14_1324 (protein)
chain: MSGSRPEPEGHLAEQHLGDRLSALVDGELGHDARERVLAHVATCPKCKAEVDAQRRLKNVFAEAAPPAPSESFLARLQGLPGGGDSDGGGSPFSGLPGGFGASAASGVFGPRRDERFEFDYVPAGSHTPVLPSATSGRGFRIHEVGRHESDRSASRGLRFAFAAAGAVSLAAIALGGVTLGTPDTTTEARGSGSGSNVTPLRTPGSAAATGSESQRRRTAGPLLGQGQRALGDLPVASTTASAPLLPGMPAPAGGDARQQAVRALTTPVTAGAAAMSPLIRPLEAVPPLSLSSWSAAPEVRPPGLLAAPDPAPSPYPAASPAASSSPLR
B7: AS15_436 (protein)
chain: MAQSTEPKASPQEATAKGGDNTKGKSRKELQQQIDENLRRVYEEALVQEVPDRFAMLLDQLRQKGTGK
B8: AS15_524 (protein)
chain: MNFGVEDMIEHVPMEDKRKGAAALDEARLRQQAIGVKLRQMFDEVVNEPVPDEFLAILRKAERPAGGE

Target: T1, ECF33_375
T1 chain: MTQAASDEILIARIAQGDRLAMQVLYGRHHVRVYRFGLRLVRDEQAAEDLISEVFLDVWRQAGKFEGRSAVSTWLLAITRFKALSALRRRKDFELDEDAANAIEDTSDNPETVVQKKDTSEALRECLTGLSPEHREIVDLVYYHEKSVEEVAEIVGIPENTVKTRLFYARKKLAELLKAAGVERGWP
B1 was tested, and the fold repression was 1.13. For B2, the fold repression was 0.909. With B3 the fold repression was 1.51. Binder B4 has a fold repression of 3.16. In the case of B5, the fold repression is reported as 1.99. For B6, the fold repression was 3.42. In the case of B7, the fold repression is reported as 2.28. B8 gave a fold repression of 4.38.

Target: T2, ECF14_3200
T2 chain: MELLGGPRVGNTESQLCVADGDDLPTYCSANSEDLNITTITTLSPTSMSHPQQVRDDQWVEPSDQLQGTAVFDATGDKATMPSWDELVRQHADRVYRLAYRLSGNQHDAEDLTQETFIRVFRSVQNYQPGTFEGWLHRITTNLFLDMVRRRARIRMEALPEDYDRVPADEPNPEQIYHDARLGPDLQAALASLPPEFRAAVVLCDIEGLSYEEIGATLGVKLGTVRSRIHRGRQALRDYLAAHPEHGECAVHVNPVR
With B1 the fold repression was 2.06. B2 gave a fold repression of 0.974. Work on B3 yielded a fold repression of 2.19. B4 showed a fold repression of 4.47. With B5 the fold repression was 2.94. B6 gave a fold repression of 35.5. B7 gave a fold repression of 9.47. Binder B8 has a fold repression of 12.9.

Target: T3, ECF38_1322
T3 chain: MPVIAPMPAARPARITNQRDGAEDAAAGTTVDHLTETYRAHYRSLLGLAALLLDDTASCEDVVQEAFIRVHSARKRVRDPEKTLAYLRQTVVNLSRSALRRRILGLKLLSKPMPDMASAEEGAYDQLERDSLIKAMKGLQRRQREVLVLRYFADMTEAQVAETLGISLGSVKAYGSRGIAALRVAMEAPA
For B1, the fold repression was 1.27. For B2, the fold repression was 1.07. Binder B3 has a fold repression of 1.68. With B4 the fold repression was 3.12. B5 showed a fold repression of 2.08. Work on B6 yielded a fold repression of 2.76. In the case of B7, the fold repression is reported as 2.66. Binder B8 has a fold repression of 4.8.

Target: T4, ECF15_524
T4 chain: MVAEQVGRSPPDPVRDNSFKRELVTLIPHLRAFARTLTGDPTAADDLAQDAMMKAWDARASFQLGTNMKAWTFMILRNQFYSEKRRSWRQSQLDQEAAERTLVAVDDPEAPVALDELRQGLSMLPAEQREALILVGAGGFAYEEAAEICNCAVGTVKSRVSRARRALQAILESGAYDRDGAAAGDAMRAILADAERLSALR
Work on B1 yielded a fold repression of 1.61. Work on B2 yielded a fold repression of 1.49. B3 showed a fold repression of 2.14. Binder B4 has a fold repression of 2.88. B5 gave a fold repression of 3.35. B6 gave a fold repression of 5.32. With B7 the fold repression was 33.1. Binder B8 has a fold repression of 31.4.

Target: T5, ECF22_4450
T5 chain: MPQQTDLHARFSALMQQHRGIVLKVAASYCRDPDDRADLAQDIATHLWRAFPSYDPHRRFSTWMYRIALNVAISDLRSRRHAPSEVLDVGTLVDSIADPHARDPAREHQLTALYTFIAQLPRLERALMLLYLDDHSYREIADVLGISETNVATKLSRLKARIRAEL
B1 showed a fold repression of 1.97. With B2 the fold repression was 1.2. Binder B3 has a fold repression of 2.49. B4 gave a fold repression of 9.53. With B5 the fold repression was 5.44. Binder B6 has a fold repression of 8.4. Work on B7 yielded a fold repression of 4.63. B8 showed a fold repression of 11.1.
